{
  "source": "paper PMC3973293",
  "about": "“A tRNA splicing operon: Archease endows RtcB with dual GTP/ATP cofactor specificity and accelerates RNA ligation” (Nucleic Acids Research, 2014)",
  "key": {"[1]": {"biological_target": "T1, Native Pyrococcus horikoshii RtcB (Pyrococcus horikoshii) (UniProt O59245)", "T1 sequence": "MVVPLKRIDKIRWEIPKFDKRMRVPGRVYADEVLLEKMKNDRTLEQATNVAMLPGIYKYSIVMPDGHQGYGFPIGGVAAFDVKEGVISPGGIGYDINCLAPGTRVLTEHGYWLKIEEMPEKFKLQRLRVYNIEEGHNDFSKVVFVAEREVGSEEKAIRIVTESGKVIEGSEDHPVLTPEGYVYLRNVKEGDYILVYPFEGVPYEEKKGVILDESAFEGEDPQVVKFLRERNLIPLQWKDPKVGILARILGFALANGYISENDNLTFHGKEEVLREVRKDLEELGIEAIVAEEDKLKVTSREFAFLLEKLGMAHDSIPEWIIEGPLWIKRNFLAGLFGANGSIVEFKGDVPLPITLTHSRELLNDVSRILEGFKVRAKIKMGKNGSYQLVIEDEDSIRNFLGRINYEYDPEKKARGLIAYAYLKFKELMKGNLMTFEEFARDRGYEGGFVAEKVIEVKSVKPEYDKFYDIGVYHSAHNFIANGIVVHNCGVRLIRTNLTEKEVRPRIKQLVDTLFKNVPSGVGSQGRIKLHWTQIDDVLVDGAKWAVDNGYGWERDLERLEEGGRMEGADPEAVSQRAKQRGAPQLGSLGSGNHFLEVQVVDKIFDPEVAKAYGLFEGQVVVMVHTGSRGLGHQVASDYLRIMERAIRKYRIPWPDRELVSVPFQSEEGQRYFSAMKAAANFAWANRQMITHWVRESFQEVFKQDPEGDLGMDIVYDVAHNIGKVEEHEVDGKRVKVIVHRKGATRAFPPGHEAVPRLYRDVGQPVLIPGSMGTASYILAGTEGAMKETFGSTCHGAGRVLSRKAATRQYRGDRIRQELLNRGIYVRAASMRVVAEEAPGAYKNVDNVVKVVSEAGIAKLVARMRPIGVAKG"}, "[2]": {"substrate": "Nc1nc2c(ncn2[C@@H]2O[C@H](COP(=O)(O)OP(=O)(O)OP(=O)(O)O)[C@@H](O)[C@H]2O)c(=O)[nH]1", "test": "single-turnover RNA ligation, FAM-RNA gel assay", "assay_type": "biochemical, Pyrococcus horikoshii", "settings": "apparent Km, RtcB 5 uM, MnCl2 0.25 mM, NaCl 300 mM, Bis-Tris pH 7.0, 70 °C, 10-nt RNA substrates 1.0 uM each, varied: cofactor"}, "[3]": {"substrate": "Nc1ncnc2c1ncn2[C@@H]1O[C@H](COP(=O)(O)OP(=O)(O)OP(=O)(O)O)[C@@H](O)[C@H]1O", "test": "single-turnover RNA ligation, FAM-RNA gel assay", "assay_type": "biochemical, Pyrococcus horikoshii", "settings": "apparent Km, Archease 800 nM, RtcB 5 uM, MnCl2 0.25 mM, NaCl 300 mM, Bis-Tris pH 7.0, 70 °C, 10-nt RNA substrates 1.0 uM each, varied: cofactor", "excerpt": "single-turnover RNA ligation, FAM-RNA gel assay on RtcB·Archease | the ATP KM* value for K480A RtcB was nearly identical to the ATP KM* value"}, "[4]": {"substrate": "O=P(O)(O)OP(=O)(O)OP(=O)(O)OC[C@H]1O[C@@H](n2cnc3c(O)ncnc32)[C@H](O)[C@@H]1O", "test": "single-turnover RNA ligation, FAM-RNA gel assay", "assay_type": "biochemical, Pyrococcus horikoshii", "settings": "apparent Km, Archease 100 nM, RtcB 5 uM, MnCl2 0.25 mM, NaCl 300 mM, Bis-Tris pH 7.0, 70 °C, 10-nt RNA substrates 1.0 uM each, varied: cofactor"}, "[5]": {"substrate": "Nc1ncnc2c1ncn2[C@@H]1O[C@H](COP(=O)(O)OP(=O)(O)OP(=O)(O)O)[C@@H](O)[C@H]1O", "test": "single-turnover RNA ligation, FAM-RNA gel assay", "assay_type": "biochemical, Pyrococcus horikoshii", "settings": "apparent Km, Archease 800 nM, RtcB 5 uM, MnCl2 0.25 mM, NaCl 300 mM, Bis-Tris pH 7.0, 70 °C, 10-nt RNA substrates 1.0 uM each, varied: cofactor", "remark": "listed apart in the source"}, "[6]": {"substrate": "Nc1nc2c(ncn2[C@H]2C[C@H](O)[C@@H](COP(=O)(O)OP(=O)(O)OP(=O)(O)O)O2)c(=O)[nH]1", "test": "single-turnover RNA ligation, FAM-RNA gel assay", "assay_type": "biochemical, Pyrococcus horikoshii", "settings": "apparent Km, Archease 100 nM, RtcB 5 uM, MnCl2 0.25 mM, NaCl 300 mM, Bis-Tris pH 7.0, 70 °C, 10-nt RNA substrates 1.0 uM each, varied: cofactor"}},
  "data": [
    {"binder": "Pyrococcus horikoshii Archease (natural protein) MLKKWEHYEHTADIGIRGYGDSLEEAFEAVAIALFDVMVNVNKVEKKEVREIEVEAEDLEALLYSFLEELLVIHDIEGLVFRDFEVKIERVNGKYRLRAKAYGEKLDLKKHEPKEEVKAITYHDMKIERLPNGKWMAQLVPDI", "values": [
      {"measurement": "RNA ligation product formed by 5 μM RtcB with Archease titrated in (activation levels off at 100 nM Archease; 92 nM product without Archease), 70°C, 30 min", "setting": "[1]", "result": 316, "unit": "nM"}
    ]},
    {"binder": "P. horikoshii RtcB (Pyrococcus horikoshii OT3) (protein, intein-free mature ligase) chain 1: MVVPLKRIDKIRWEIPKFDKRMRVPGRVYADEVLLEKMKNDRTLEQATNVAMLPGIYKYSIVMPDGHQGYGFPIGGVAAFDVKEGVISPGGIGYDIN chain 2: CGVRLIRTNLTEKEVRPRIKQLVDTLFKNVPSGVGSQGRIKLHWTQIDDVLVDGAKWAVDNGYGWERDLERLEEGGRMEGADPEAVSQRAKQRGAPQLGSLGSGNHFLEVQVVDKIFDPEVAKAYGLFEGQVVVMVHTGSRGLGHQVASDYLRIMERAIRKYRIPWPDRELVSVPFQSEEGQRYFSAMKAAANFAWANRQMITHWVRESFQEVFKQDPEGDLGMDIVYDVAHNIGKVEEHEVDGKRVKVIVHRKGATRAFPPGHEAVPRLYRDVGQPVLIPGSMGTASYILAGTEGAMKETFGSTCHGAGRVLSRKAATRQYRGDRIRQELLNRGIYVRAASMRVVAEEAPGAYKNVDNVVKVVSEAGIAKLVARMRPIGVAKG", "values": [
      {"measurement": "Km", "setting": "[2]", "result": "2.4 ± 0.2", "unit": "µM"}
    ]},
    {"binder": "RtcB·Archease (Pyrococcus horikoshii OT3; K870A) (protein, Archease untagged as described, codon-optimised, Leu inserted after ATG, E. coli BL21, 16 kDa, mostly monomer; with Protein archease) chain 1: MVVPLKRIDKIRWEIPKFDKRMRVPGRVYADEVLLEKMKNDRTLEQATNVAMLPGIYKYSIVMPDGHQGYGFPIGGVAAFDVKEGVISPGGIGYDIN chain 2: CGVRLIRTNLTEKEVRPRIKQLVDTLFKNVPSGVGSQGRIKLHWTQIDDVLVDGAKWAVDNGYGWERDLERLEEGGRMEGADPEAVSQRAKQRGAPQLGSLGSGNHFLEVQVVDKIFDPEVAKAYGLFEGQVVVMVHTGSRGLGHQVASDYLRIMERAIRKYRIPWPDRELVSVPFQSEEGQRYFSAMKAAANFAWANRQMITHWVRESFQEVFKQDPEGDLGMDIVYDVAHNIGKVEEHEVDGKRVKVIVHRKGATRAFPPGHEAVPRLYRDVGQPVLIPGSMGTASYILAGTEGAMKETFGSTCHGAGRVLSRKAATRQYRGDRIRQELLNRGIYVRAASMRVVAEEAPGAYKNVDNVVKVVSEAGIAKLVARMRPIGVAAG", "values": [
      {"measurement": "Km", "setting": "[3]", "result": "3.0 ± 1.0", "unit": "µM"}
    ]},
    {"binder": "RtcB·Archease (Pyrococcus horikoshii OT3) (protein, Archease untagged as described, codon-optimised, Leu inserted after ATG, E. coli BL21, 16 kDa, mostly monomer; with Protein archease) chain 1: MVVPLKRIDKIRWEIPKFDKRMRVPGRVYADEVLLEKMKNDRTLEQATNVAMLPGIYKYSIVMPDGHQGYGFPIGGVAAFDVKEGVISPGGIGYDIN chain 2: CGVRLIRTNLTEKEVRPRIKQLVDTLFKNVPSGVGSQGRIKLHWTQIDDVLVDGAKWAVDNGYGWERDLERLEEGGRMEGADPEAVSQRAKQRGAPQLGSLGSGNHFLEVQVVDKIFDPEVAKAYGLFEGQVVVMVHTGSRGLGHQVASDYLRIMERAIRKYRIPWPDRELVSVPFQSEEGQRYFSAMKAAANFAWANRQMITHWVRESFQEVFKQDPEGDLGMDIVYDVAHNIGKVEEHEVDGKRVKVIVHRKGATRAFPPGHEAVPRLYRDVGQPVLIPGSMGTASYILAGTEGAMKETFGSTCHGAGRVLSRKAATRQYRGDRIRQELLNRGIYVRAASMRVVAEEAPGAYKNVDNVVKVVSEAGIAKLVARMRPIGVAKG", "values": [
      {"measurement": "Km", "setting": "[4]", "result": "1.9 ± 0.4", "unit": "µM"},
      {"measurement": "Km", "setting": "[5]", "result": "3.4 ± 1.1", "unit": "µM"},
      {"measurement": "Km", "setting": "[6]", "result": "1.8 ± 0.1", "unit": "µM"},
      {"measurement": "Km", "setting": "[2]; Archease 100 nM", "result": "1.5 ± 0.3", "unit": "µM"}
    ]}
  ]
}
